From patent US20160194380A1 (Merck KGaA, published 2016) come the findings set out here.

Where no end group is shown, it is not given here.

The target of assay [1] is T1, Bovine pancreatic trypsin (bovine, UniProt P00760 24-246).
T1 construct: Bought
Description: protease inhibition assay, substrate-independent Ki from Morrison fit. The procedure: (§1) D: Biol. Crystallogr., 69(2013), 114-120; Reinwarth, ChemBioChem, 14(2013), 137-146; Boy, Mol. Imaging Biol. 12(2010), 377-385] Measurements were carried out in triplicates using a Tecan Genios ELISA reader. The normalized residual proteolytic activity (v/v0) of proteases was determined using substrates Boc-QAR-pNA (250 μM), Boc-QAR-AMC (250 μM) or Spectrozym tPA (250 μM). Product formation was monitored after preincubation (30 min, RT) with inhibitor at different concentrations over 30 min by measuring the absorbance at 405 nm or the fluorescence emission (ex. 360 nm, em. 465 nm), respectively. Selectivity data were carried out in duplicates with final protease concentrations of uPA and thrombin of 5 nM. In case of hepsin 50 mM Tris/HCl pH 9.0 was used as assay buffer. Apparent inhibition constants (Kᵢ^app) were calculated by fitting the Morrison equation (1) for tight-binding inhibitors to the relative reaction velocity using non-linear regression (Marquardt-Levenberg algorithm, SigmaPlot 11).
(§2) Substrate-independent inhibition constants Ki were calculated from Ki^app and Km of the enzyme according to (2). The Michaelis-Menten constant Km for the substrates and proteases were determined previously.

Another assay has as its target T2, Human matriptase-1 (human, UniProt Q9Y5Y6 596-855, limits assumed).
T2 construct: also called MTSP1
T2 sequence (looked up): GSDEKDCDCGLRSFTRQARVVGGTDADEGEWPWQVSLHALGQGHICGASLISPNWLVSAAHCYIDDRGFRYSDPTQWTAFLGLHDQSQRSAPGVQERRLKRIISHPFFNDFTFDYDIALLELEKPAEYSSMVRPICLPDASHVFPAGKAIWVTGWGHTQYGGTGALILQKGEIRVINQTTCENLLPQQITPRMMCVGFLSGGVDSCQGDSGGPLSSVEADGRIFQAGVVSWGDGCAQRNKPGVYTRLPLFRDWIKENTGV
Described as above. Here is the method: as §1, §2

T1 sequence (P00760 24-246): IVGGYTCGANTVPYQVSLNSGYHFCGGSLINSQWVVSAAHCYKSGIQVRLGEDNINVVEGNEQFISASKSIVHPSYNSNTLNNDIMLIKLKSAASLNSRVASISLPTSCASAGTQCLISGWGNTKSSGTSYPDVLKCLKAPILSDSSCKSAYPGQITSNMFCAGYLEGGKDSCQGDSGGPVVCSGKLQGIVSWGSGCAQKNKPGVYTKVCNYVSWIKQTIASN

B1: MCoTI-II wt (inhibitor 3) (peptide, UniProt P82409 5-34, looked up)
peptide: GGVCPKILKKCRRDSDCPGACICRGNGYCG
modifications: disulfide (positions not given here); also: oxidatively folded, disulfide places not given here
notes: Open-chain (acyclic) form, chemically synthesised and oxidatively folded; also called 3 (MCoTI-II wt); MCoTI-wt 3
Regarding B1, the inhibition constant Ki in assay [1] turned out to be 2.37 nM; with Human matriptase-1, 80.7 nM.

B2: SOTI-III wt (inhibitor 1) (peptide, UniProt P84781 1-37, looked up)
peptide: EDKCSPSGAICSGFGPPEQCCSGACVPHPILRIFVCQ
modifications: disulfide (positions not given here); also: oxidatively folded, disulfide places not given here
notes: Made by Fmoc-SPPS and oxidative folding; also called 1 (SOTI-III wt); SOTI-III wild type 1
Regarding B2, in assay [1], the Ki was found to be 60.6 nM.

Broadly, the Ki is the equilibrium dissociation constant of an inhibitor or competing ligand from its target. Higher therefore signals a looser hold on the target.
